{"source": "patent US11028159B2", "about": "(priority 2017, dated 2021)", "molecules": {"B1": {"name": "VHH candidate against cobrotoxin: camelid (llama) single-domain VHH antibody binding cobrotoxin, SEQ ID NO 4 (protein)", "VHH": "MAQVQLQESGGGLAQAGGSLRLSCSASRNIFRVYGWYRQAPGKQREWVASITRDDSTAYADSVKGRFTISRDSAKNTMYLQMSSLRLEDTSTYYCAAQSISGTIQWGQGTQVTVSSTSGPGGQHHHHHHGAEQKLISEEDLS"}}, "test_system": "venoms of different snake species", "assay_type": "binding", "data": [{"molecule": "B1", "values": [{"measurement": "number of venoms of different snake species bound (ELISA)", "result": "at least 6"}]}]}
